experiment: soluble on expression in E. coli; label from the status in PepcDB or PDB records

Question: With “MSLRKEPYLLVFGASVVDVFGFSKASYRPYNSTPGHVKISFGGVCRNIAENMARVGVNTNFMSILGNDEHGKSIVEHSKKIGYHMDDSMVIEGGSTPTYLAILDENGEMVSAIADMKSIGAMNTDFIDSKREIFENAEYTVLDSDNPEIMEYLLKNFKDKTNFILDPVSAEKASWVKHLIKDFHTIKPNRHEAEILAGFPITDTDDLIKASNYFLGLGIKKVFISLDADGIFYNDGVSCGKIKATEVDVKNVTGAGDSFVAGLGYGYMNKMPIEDIVKFAMTMSNITISHEETIHPDMALDTVLAKLEKTTWEEEKYDLNEGHHHHHH” as the sequence, how does the “soluble on expression in E. coli” value read?
Answer: soluble

Question: With “MVERTAVFPAGRHSLYAEHRYSAAIRSGDLLFVSGQVGSREDGTPEPDFQQQVRLAFDNLHATLAAAGCTFDDIIDVTSFHTDPENQFEDIMTVKNEIFSAPPYPNWTAVGVTWLAGFDFEIKVIARIPEQ” as the sequence, how does the “soluble on expression in E. coli” value read?
Answer: soluble

Question: For “MSLPNRLLITNASIAKMDEPDDGYGLMMHAALLIQDEKIEWLGSVSDIPAGLGDPEELDACGRLLTPALIDCHTHIVHGGNRAREFEMRLEGASYEEIARAGGGIISTVTATRETDEAALLQDALKRADSLIAEGVSLIEIKSGYGLDVETELKMLRVARAIERERSVRVVTSFLGAHAVPKGADADFYIDKVCIPALEAAHKEGLVDAVDGFCEGIAFDTVQMGRLFERARQLDIPVKLHAEQLSNIGGTKLAASYNALSVDHVEYADKTDIAAMAKAGSVAVLLPGAFYTLHETQKPLVEAFRSESVPMAVATDWNPGSSPMGSLLLAMNMSCTLFGLTPVEALAGTTRNAARALGLKDCGIVAPGKRADLAIWDVLEPAELSYRFGVNPLHRRIFGGRLEGHHHHHH”, which “soluble on expression in E. coli” value is on record?
Answer: soluble

Question: Which “soluble on expression in E. coli” value does the source give for “SLESYLRLSEVDKQILHSHALMLDGLGNFFGSTHEVILHSLENLESSAIKVINGHFSNRKEGAPITDMALKMLSQVESEHDYAVKPYYNKNQKGVILKSSTIPVIGENDRIIGLICINMHLEMPLIDYLQDLLPSGQQNDMSQELKNSEHFSDNIDELITTSLTKVKQAVESDPNVSHLNQNKEIVIRLYDQGIFNLKDSVIKIADRLGISKNTIYLHIRNHKKEEA” here?
Answer: soluble

Question: With “MSLGRKQQYGTLASIAAKLGISRTTVSNAYNRPEQLSAELRQRILDTAEDMGYLGPDPVARSLRTRRAGAIGVLLTEDLTYAFEDMASVDFLAGVAQAAGDTQLTLIPASPASSVDHVSAQQLVNNAAVDGVVIYSVAKGDPHIDAIRARGLPAVIADQPAREEGMPFIAPNNRKAIAPAAQALIDAGHRKIGILSIRLDRANNDGEVTRERLENAQYQVQRDRVRGAMEVFIEAGIDPGTVPIMECWINNRQHNFEVAKELLETHPDLTAVLCTVDALAFGVLEYLKSVGKSAPADLSLTGFDGTHMALARDLTTVIQPNKLKGFKAGETLLKMIDKEYVEPEVELETSFHPGSTVAEGHHHHHH” as the sequence, how does the “soluble on expression in E. coli” value read?
Answer: soluble

Question: For “MAHHHHHHMTTPSSPAHPAAHLCDVTGDTAAAAAAGASGMMADTARMLSPRPSVTRTAAKTSGGPVQVALSQSCPHPHQQHQQHHQHHQHQQHHQHHQHQQHHQHHQHQQHHQHQQHQQHQQPCLGGLLDPFFLTEIDENVQAFSGTAATSGSHTSLSGDGGSPSAKDAALCSPCVECVPPARGKTVRKSRSACELRLECLLSTSMGSDITKDEADDSKRKRRQPSSFPSSSRRDTAGCFSSVEVMGPTDEVAAADEAIATTAATAADAEAGVKSRDPKRRSLLPTWVTARTSTVTRAGAPPTDSGETSRTANGCLASPRSFSLSHSKPSSGSRDTSEGSHVLDCEATLLPSESVGVVASTHSSTVSSYASEAQGRAAEEATNCATAGGATVGSKMTLLVSLIMRCTPSRRGPPHSASPTEDGAADAERLPPLELYPPLVSPSSIEEASCGVGYDVPSAHHDDMYAMKDITVAVKEDVNQRRGALAKEPTLPASTASRRTQHTKWSMHPSPVSAWLLGSSAVGASLSTALWRAALRSRPAMHTPCSCVSARAEQHSVQVLSRVLANGSAVSTKVLAMRSWAEFERASVSFPSTWSASVSAHLSAVPPSLTTDSTTLRGPSMLHLTLPPLPDQTSVGPASIAYINRAPSRPAATAEEVVARQPCDVWRLARCYAHFERAVEQRGEDGVWSARGISSLATWDSVKLVVAAGVASRDAESSTDEGCEDGGAWLLPSFTLDVVPDTLDTPSPASPQVTSTFPFSPVVSVLRAEKEEEVFTSAVMWALEMMTGVR”, which “soluble on expression in E. coli” value is on record?
Answer: soluble

Question: With “MFQFQFPLYNDIVEQARREAVEAGFEELRTPEDVDAAFRRPGTTLVLINSVCGCAGGIARPAAAHAVHYDKRPDHLVTVFAGQDKEATARAREYFVGEPPSSPSFALLKDGKLCAMLHRHDIEGHEPVAVVQKLQALFDEYCEEV” as the sequence, how does the “soluble on expression in E. coli” value read?
Answer: not soluble

Question: With “SFFMGEKTFYHIKKENLILKARMFGKITSLGISGFVMQGTNCLVQIVCNKMLFMYGGDMYVGIMTVINSVREILSVPGSTLGSGAQPVLGYNYGAKQYERVRKA” as the sequence, how does the “soluble on expression in E. coli” value read?
Answer: not soluble

Question: For “MSRPFTGATLCTTIAPHCSRTTAMTTLPAASPEALATSQALCGRISQAIAEAGGWIPFSHYMELALYAPGMGYYAAGSRKLGEDGDFVTAPELTPLFGQSLARQLAELLPQTAGAVYEFGAGTGKLAIDLLAELKALNQLPAKYVILDLSPDLIDRQRQNIRAALPHLADRVEWASSLPDAIDGIVIGNELLDAMPCEMVFRDEDRRLRQRGVTVRDGALCYEDRDFADSRLAELAAQLLPDIPRYETEISLANRAFIATVAGALTRGAILMIDYGHAASEYYHPERSMGTLLGHYRHHTVQDPFYLPGLMDLTCHVDFTAVAQSGIDAGLDLIGYTSQAQFLVNCGLIERLQTLDADDVKAYLPIAKAAQRLLSPQEMGETFKAIGFGKGVSIDWLGFARGDRCYTLLEHHHHHH”, which “soluble on expression in E. coli” value is on record?
Answer: soluble

Question: Which “soluble on expression in E. coli” value does the source give for “MGSDKIHHHHHHMENTSYIALSRQTALWRQLDVVSNNLANMNTNGYQAEQTLFSEYLMNTRDSHFRLPEKLAYTQDAGTYRDLTAGPLEHTGNPLDLAINGEGYFEVEDGAGPAYTRGGRFTLDAEGKVVTADGRPLMTDAGTPLVIAPNEGEVTISATGTVSTENGPVGKLRLVSFEDEQKLRRIGGGLFDSGDQQANPITEPRIEQGMIEKSNVNPVVEMTRMIQVQRSYEAANKLIESENDRQLNAYAVLSGTK” here?
Answer: not soluble

Question: With “SCQSEKHPGPELQAAEKWLYFPQLALWRRLGQLSCMSRPALNLRSWLLTILHYLLPFRVLGPHSQVGWRPLSRVSLYKTVPTRLLSRACGRLNQVELPYWLWRPVYSLYIWTFGVNMTEAAVEDLHHYHNLSEFFWHQPIMARSSPLGR” as the sequence, how does the “soluble on expression in E. coli” value read?
Answer: not soluble

Question: Which “soluble on expression in E. coli” value does the source give for “MGSDKIHHHHHHMATLSKKIDFAIIMSVKNANPNGDPLNGNRPRTDYEGLGEITDVCLKRKIRDRLVEQYVSLKNEEEKKGQAIFVQSDDRKIDGETSLRNRAESEKNGLGKKAFGANAKKDETAKSACEKWFDVRAFGQVFAFGKGNDADGVSIPVRGPVTIQSAFSRDLVSISSTQITKSVSGEGDGKKRSSDTMGMKHRVDRGIYVTYGTMNPQLAERTGFSDKDAAVIKAILPKIFENDASSARPEGSMEVVKVLWWQHNSKSGDYSSAKVHRSLKVNPDGSYIIEPLNGLVPEEIAGF” here?
Answer: not soluble

Question: With “MGSDKIHHHHHHMITAAVVTFHTSRKDLIRLIDCVLQSSVDKFFIIDNSTNDALRELESVSERITYIYSDNLGFGSGHNIAIDRAIDLGSDYHIIINPDIYWNGDIIEQLVQFMDQNKDCGLVMPKILYPNGEVQYLCKLLPTPLDLFGRRFIPFKMFQEKRNAWYEMHWSGYDKVMEVPSLSGCFMFIRTDILKKTGGFDKRFFMYAEDMDLCRRIGEITRTMYYPSVLVFHEYEKGSYKNRKLLKYHICSIIKYFNKWGWFIDKKRRKKNDYCLKLTEHIRN” as the sequence, how does the “soluble on expression in E. coli” value read?
Answer: not soluble

Question: For “MGSDKIHHHHHHMQDTKYYEPTNIFRQPAINIKKRSDKKRILQSMMTLSTYKKTWQNNTSKMNSPILRKASDNFNDYYTTKKLKSDYWKLYGVDESELSIPSDMSIVDNILLVSTMNEKDNLKLFEISAEKKLKELQTITVPGKPITCICLLPMVDFPPQIFPSSQINPNHNQLILTGHQDGIVNLIATSTYKGCAKIIKRFNHNKFLKSTVSTSIPILEITPKTAPILKVSPWNKTGFVSLLNDSLFIYDLKSNLDCIKTPIFLQSYPGINSFAVNEFHDPFLLALVGSKFGPNGISLLDLRTNLYIPDILDNSISAGCGKDHLQRKNTSLDCVWISNHHVAQSLNDKIQIWDIQSCDGKPVCELYAKKGYIESLKFNENTGALYSSDDQGFVICWDLQNLQNMKYGELVHGFNSISLDSESELLLTKQVFQCGNIIVSGMSDKNICLKSNDTKANGKGCGFLFLDMANDGSLVTLDNFCELGLHQICQVQFNVDTGKIIDGNGTGKSGISDSSMLSLSNESDHSMTETSDDMFSNSGNWDCSSANTVSEGRLNDDQEDIVFTKRMYSVNDVHLSGSTIDTTVV”, which “soluble on expression in E. coli” value is on record?
Answer: not soluble

Question: Which “soluble on expression in E. coli” value does the source give for “MGSDKIHHHHHHMSGMIGKIQDKKIFSITIIPSSWCNFRCVYCYENDHYKIKNMITTSEMTKRIKLFLENNIKTGFFRKVHIRWYGGEPLLDFKTIIDIMDFTNSIGKTYKTDIIGEIITNGYLLDIVKFKILLEKGVKIFQVTIDGYKDAHDKLRPLLNGKPTFDKIFENLIQTRNVTDNFFMFIRSNVMPDNLDSIKKFLDLASNYFSRDRRYYFTFFPVTRSGGDNDKNLKVIEPKKRMEIIQELYMYATQLGLNIPDKDTLLQIDGVPAMDDLCQALYPFSIIIRNDGKLFKCPLTVMIDDESVGHIEEDGSIVLDESKINRWAKYILSPLSRGCPRLHELGEVVGVEAE” here?
Answer: not soluble

Question: Which “soluble on expression in E. coli” value does the source give for “PVLTQTSEQAPSSAPRDVQARMLSSTTILVQWKEPEEPNGQIQGYRVYYTMDPTQHVNNWMKHNVADSQITTIGNLVPQKTYSVKVLAFTSIGDGPLSSDIQVITQTG” here?
Answer: soluble

Question: For “MAHHHHHHMDMLGAVVVENSNLTTTLPAPHTLHERPAEGFSPQRRVLLVPLTEAYEHTTGWMVPTEMEGAQLAMSLYVNDTPVSLPPNWQLSPAKEAAAVKTAMAVDITPLVLSIERDLFSLQVIFSGDVAEMEMWRGVIACVLVEEVELAQLGERIVSTYHKRRAPVIRRSPLSSCGERGVVAITEVSVKIQCPITTLTMEIPVRGMYCEHLQCMELAAVLIQCARQNVWNCPLCSAAMKPEDIIVNHRLKDWIASHSREVVAQVEYIVETELGRPLKIVYKAARPEQHSTIEVIDDEEK”, which “soluble on expression in E. coli” value is on record?
Answer: not soluble

Question: With “MYKAFYGLSDNPFSIAPNPHYLFLSDRHREALAHLTYGLGETGGFVLLTGEVGTGKTTVSRCLLGQLPDNTDTAFILNPSLTELELLATLCDELKISYGENPTLKQLTDHLSRFLLANHEKGRKTVLIIDEAQHLRAEVLEQLRLLTNLETDTKKLLQVILIGQPELQLLLKRQELRQLAQRITARYHLLPLNEDEITLYVLHRLQVAGRFEPLFTRKAIKVLHKYSGGIPRLINLLCERALMAGYAQSKVPIDHHMVRQAAAEVLGEEKPSQNKFLWPSAIAAALVLTFGVSYWLFTDHAVVATVANENVTQPKQTVIAENAVQQSQTALTNTAPAITLAQTPAAPDPNLRVLQEAIKQSRQIDTAFAGLFNVWGKVPFKGLTACQSAFEQGLSCYQQQGNWMSLTRLNYPAVVYLVDDNQQDFYGAVIAVDGEQLLMQLGEQQLWVERTWFNQHFSGTFEILWQAPNLPMMEISQKSSPGQLQWLENALAHVAKRPSRRVSQFDLKLENDLKAFQSQHGLKADGIAGNQTLVRLNLYLSDQGPRLTDNGAQS” as the sequence, how does the “soluble on expression in E. coli” value read?
Answer: not soluble

Question: With “NEVRFVVFHAVDTSEKQILVRSLEEAENKFAKLTQLLPDGLLLIEDDTIISANPASARLLGLNSPHELLGEELSRLFIDENTKKVFSHRLSTLISDKPFVCLTSARCGFERKVQLHADSTAILGSESQIILIQDA” as the sequence, how does the “soluble on expression in E. coli” value read?
Answer: not soluble
